4 molecules from patent US20260139001A1 (Harvard, published 2026) can be followed below.

Where a chain is given by its changes, count along the chain named.

The target of test [1] is T1, SARS-CoV-2 Spike RBD, Wuhan (SARS-CoV-2, UniProt P0DTC2 319-541).
Test [2] addresses T1, SARS-CoV-2 Spike RBD, Wuhan. This is another data set of the same source.

The term EC50 denotes the midpoint of the concentration-response curve. Read a high EC50 as weaker potency. For orientation: Kd means the concentration at which binding is half-saturated.

B1: LCB3-NS (LCB3 H19aNBDC) (designed binder)
chain: MNDDELHMLMTDLVYEALCFAKDEEIKKRVFQLFELADKAYKNNDRQKLEKVVEELKELLERLLS
In test [1], B1 registered an EC50 of 6.4 µM. That is a single-digit micromolar value.

B2: VHH72 wt (VHH)
VHH: QVQLQESGGGLVQAGGSLRLSCAASGRTFSEYAMGWFRQAPGKEREFVATISWSGGSTYYTDSVKGRFTISRDNAKNTVYLQMNSLKPDDTAVYYCAAAGLGTVVSEWDYDYDYWGQGTQVTVSS
B2 gave a Kd in test [2] of 0.045 µM.

B3: VHH72 G56MDCcC (VHH)
VHH: B2 VHH with G56C
For B3, a half-maximal effect in test [1] (EC50) was put at 1.1 µM. That is a single-digit micromolar value.

B4: VHH72 NoK wt (VHH)
VHH: B2 VHH with K43R, K65R, K76R, K87R
Consider B4, for which the Kd in test [2] was 0.075 µM.
